Each block holds one binder with its values, some of them ahead of it.
What was measured:
PD-1 protein [1] = target: T1, PD-1 protein (human, UniProt Q15116 25-167, limits assumed); assay: ELISA, PD-1 coated
T1 construct: also called human PD-1
Experimental: 2 μg/ml of PD-1 protein is coated on 96-well plates overnight for ELISA binding assay. Recombinant VHH-FC proteins are added to the wells and allowed to stand for a period of time, then 1 μg/ml of HRP-conjugated anti-FC antibody is added as detection antibody and the assay reagents are added. The absorbance is read at 450 nm. Binding of nivolumab serves as a positive control and plates coated with BSA are used as the negative control group.

PD-1 protein [2] = target: T1, PD-1 protein; assay: blocking ELISA, PD-1 coated, competitor biotin PD-L1
Experimental: Each well of 96-well microtiter plates is coated with 2 μg/ml of PD-1 protein in PBS and blocked with 1% BSA. […]
The intensity of the developed color is measured at 450 nm. Wells with no added PD-1 and no added VHH-FC are negative and positive controls, respectively.

T1 sequence (Q15116 25-167 limits assumed): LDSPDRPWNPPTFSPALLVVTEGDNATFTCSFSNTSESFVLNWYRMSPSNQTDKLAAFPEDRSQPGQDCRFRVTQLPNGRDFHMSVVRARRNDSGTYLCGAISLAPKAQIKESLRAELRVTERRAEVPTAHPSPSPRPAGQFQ

B1: 504#SS1 (Fc fusion)
VHH: QVQLVESGGGLVQAGGSLRLSCAASGLTFSDFAMGWFRQAPGKEREFVAAISWSGGQTYNVESAKGRFTISRDNAKNTVYLQMNKLKPDDTAVYYCAASTMVVTTVAADYKYWGQGTQVTVSS
notes: VHH-FC construct from HEK293 cells; not shown: The (G4S)3 linker leading to it is left out with it
OD450 at 0.002 µg/mL (PD-1 protein [1]): 0.03 OD450 | OD450 at 0.02 µg/mL (PD-1 protein [1]): 0.03 OD450 | OD450 at 0.2 µg/mL (PD-1 protein [1]): 0.03 OD450 | OD450 at 2 µg/mL (PD-1 protein [1]): 0.04 OD450 | OD450 of PD-L1 bound, antibody at 0.15 µg/mL (PD-1 protein [2]): 3.19 OD450 | OD450 of PD-L1 bound, antibody at 0.61 µg/mL (PD-1 protein [2]): 3.15 OD450 | OD450 of PD-L1 bound, antibody at 2.42 µg/mL (PD-1 protein [2]): 3.26 OD450 | OD450 of PD-L1 bound, antibody at 9.75 µg/mL (PD-1 protein [2]): 3.17 OD450

B3: 504#SS8 (Fc fusion)
VHH: EVQVVESGGGLVQAGGSLRLSCTASGRTFSNYAMGWFRQAPGKEREFVASVTWGGSGTFYADSVKGRFTISRDNIKNTVYLQMNSLKPEDTAVYYCAADNVGDSWYSDDYKYWGQGTQVTVSS
notes: as for B1
OD450 at 0.002 µg/mL (PD-1 protein [1]): 0.03 OD450 | OD450 at 0.02 µg/mL (PD-1 protein [1]): 0.03 OD450 | OD450 at 0.2 µg/mL (PD-1 protein [1]): 0.03 OD450 | OD450 at 2 µg/mL (PD-1 protein [1]): 0.04 OD450 | OD450 of PD-L1 bound, antibody at 0.15 µg/mL (PD-1 protein [2]): 3.27 OD450 | OD450 of PD-L1 bound, antibody at 0.61 µg/mL (PD-1 protein [2]): 3.28 OD450 | OD450 of PD-L1 bound, antibody at 2.42 µg/mL (PD-1 protein [2]): 3.33 OD450 | OD450 of PD-L1 bound, antibody at 9.75 µg/mL (PD-1 protein [2]): 3.27 OD450

B7: 504#SS2 (Fc fusion)
VHH: EVQVVESGGGLVKTGDSLRLSCAASGGTISGYEMGWFRQAPGKEREFVAGISRNGRSTGYSDSAKDRFTISRDNAKNTVYLQMNSLKPEDTAVYYCAAGLKADYGDSYVDTSTRNYNYWGQGTQVTVSS
notes: as for B1
OD450 at 0.002 µg/mL (PD-1 protein [1]): 0.59 OD450 | OD450 at 0.02 µg/mL (PD-1 protein [1]): 2.25 OD450 | OD450 at 0.2 µg/mL (PD-1 protein [1]): 3.12 OD450 | OD450 at 2 µg/mL (PD-1 protein [1]): 3.1 OD450 | OD450 of PD-L1 bound, antibody at 0.15 µg/mL (PD-1 protein [2]): 3.34 OD450 | OD450 of PD-L1 bound, antibody at 0.61 µg/mL (PD-1 protein [2]): 3.23 OD450 | OD450 of PD-L1 bound, antibody at 2.42 µg/mL (PD-1 protein [2]): 3.31 OD450 | OD450 of PD-L1 bound, antibody at 9.75 µg/mL (PD-1 protein [2]): 3.31 OD450

B8: 504#SS5 (Fc fusion)
VHH: QVQLVESGGGSAQAGGSLRLSCTASGRPFSIYDMGWFRQAPGKERESVAVINLSRGNTYYADSVKGRFTISLDSAKNTVYLQMNSLKPEDTAVYSCGVDRRQYGLGIPPLADYWGQGTQVTVSS
notes: as for B1
OD450 at 0.002 µg/mL (PD-1 protein [1]): 1.56 OD450 | OD450 at 0.02 µg/mL (PD-1 protein [1]): 2.79 OD450 | OD450 at 0.2 µg/mL (PD-1 protein [1]): 3.18 OD450 | OD450 at 2 µg/mL (PD-1 protein [1]): 3.06 OD450 | OD450 of PD-L1 bound, antibody at 0.15 µg/mL (PD-1 protein [2]): 3.18 OD450 | OD450 of PD-L1 bound, antibody at 0.61 µg/mL (PD-1 protein [2]): 1.65 OD450 | OD450 of PD-L1 bound, antibody at 2.42 µg/mL (PD-1 protein [2]): 0.14 OD450 | OD450 of PD-L1 bound, antibody at 9.75 µg/mL (PD-1 protein [2]): 0.08 OD450

Other lines, results leading:

OD450 at 0.002 µg/mL (PD-1 protein [1]): 0.14 OD450 | OD450 at 0.02 µg/mL (PD-1 protein [1]): 0.93 OD450 | OD450 at 0.2 µg/mL (PD-1 protein [1]): 2.77 OD450 | OD450 at 2 µg/mL (PD-1 protein [1]): 3.06 OD450 | OD450 of PD-L1 bound, antibody at 0.15 µg/mL (PD-1 protein [2]): 3.32 OD450 | OD450 of PD-L1 bound, antibody at 0.61 µg/mL (PD-1 protein [2]): 3.28 OD450 | OD450 of PD-L1 bound, antibody at 2.42 µg/mL (PD-1 protein [2]): 3.31 OD450 | OD450 of PD-L1 bound, antibody at 9.75 µg/mL (PD-1 protein [2]): 3.27 OD450
B2: 504#SS28 (Fc fusion, not shown: a dimerising Fc or GST; small tags and cut ends)
VHH: QVQLVESGGGSVQPGGSLRLSCAVSGFTLDYYDIGWFRQAPGKERDWISCISSSDGSQYYADSVKDRFFISRDNAKNTVYLQMNSLEPGDTAVYYCAADFDTYRFCSGFGPDAYSSWGQGTQVIVSS
notes: VHH-FC construct from HEK293 cells

OD450 at 0.002 µg/mL (PD-1 protein [1]): 0.04 OD450 | OD450 at 0.02 µg/mL (PD-1 protein [1]): 0.03 OD450 | OD450 at 0.2 µg/mL (PD-1 protein [1]): 0.03 OD450 | OD450 at 2 µg/mL (PD-1 protein [1]): 0.04 OD450 | OD450 of PD-L1 bound, antibody at 0.15 µg/mL (PD-1 protein [2]): 3.47 OD450 | OD450 of PD-L1 bound, antibody at 0.61 µg/mL (PD-1 protein [2]): 3.34 OD450 | OD450 of PD-L1 bound, antibody at 2.42 µg/mL (PD-1 protein [2]): 3.32 OD450 | OD450 of PD-L1 bound, antibody at 9.75 µg/mL (PD-1 protein [2]): 3.28 OD450
B4: 504#SS22 (Fc fusion, not shown: a dimerising Fc or GST; small tags and cut ends)
VHH: QVQLVETGGGLVQAGGSLRLSCAASGRTFSSYAMGWFRQAPGKERDFVAGISGSGGNTPYAESVKGRFTISRDNAKNTVALQMNSLKPEDTAVYYCAAKFTSSSFYYRSPREYSSWGQGTQVTVSS
notes: as for B2

OD450 at 0.002 µg/mL (PD-1 protein [1]): 0.03 OD450 | OD450 at 0.02 µg/mL (PD-1 protein [1]): 0.03 OD450 | OD450 at 0.2 µg/mL (PD-1 protein [1]): 0.04 OD450 | OD450 at 2 µg/mL (PD-1 protein [1]): 0.07 OD450 | OD450 of PD-L1 bound, antibody at 0.15 µg/mL (PD-1 protein [2]): 3.22 OD450 | OD450 of PD-L1 bound, antibody at 0.61 µg/mL (PD-1 protein [2]): 3.2 OD450 | OD450 of PD-L1 bound, antibody at 2.42 µg/mL (PD-1 protein [2]): 3.27 OD450 | OD450 of PD-L1 bound, antibody at 9.75 µg/mL (PD-1 protein [2]): 3.28 OD450
B5: 504#SS12 (Fc fusion, not shown: a dimerising Fc or GST; small tags and cut ends)
VHH: EVQVVESGGGLVQPGGSLRLSCAVSGRGFSEHAMGWYRQSPGKQREFVAGVTSYGGTNYADSVKGRFTISRDNVGNTVFLQMNSLKPEDTAVYYCNYKRGHYPDGVSTYEYWGQGTQVTVSS
notes: as for B2

OD450 at 0.002 µg/mL (PD-1 protein [1]): 0.04 OD450 | OD450 at 0.02 µg/mL (PD-1 protein [1]): 0.04 OD450 | OD450 at 0.2 µg/mL (PD-1 protein [1]): 0.04 OD450 | OD450 at 2 µg/mL (PD-1 protein [1]): 0.05 OD450 | OD450 of PD-L1 bound, antibody at 0.15 µg/mL (PD-1 protein [2]): 3.53 OD450 | OD450 of PD-L1 bound, antibody at 0.61 µg/mL (PD-1 protein [2]): 3.69 OD450 | OD450 of PD-L1 bound, antibody at 2.42 µg/mL (PD-1 protein [2]): 3.57 OD450 | OD450 of PD-L1 bound, antibody at 9.75 µg/mL (PD-1 protein [2]): 3.68 OD450
B6: 504#SS15 (Fc fusion, not shown: a dimerising Fc or GST; small tags and cut ends)
VHH: QVQLVESGGGLVQPGGSLRLSCAASGFTFSNYAMTWYRQAPGKERELVAAISSAGYTTTYAGSVKGRFTISRDNAKNTVYLQMNSLNPEDTAVYYCNAGRLSYGGSYYPNDDYWGQGTQVTVSS
notes: as for B2

From US20230002757A1 (ZHEJIANG NANOMAB TECHNOLOGY CENTER, published 2023)
